Measurements taken from US20250051455A1 (Hoffmann-La Roche, published 2025).
Residue numbers refer to the chain shown, from its start.

B1: HLA-G-0090 (antibody, V domains shown)
VH: QVQLQQSGPGLLKPSQTLSLTCAISGDSVSSNRAAWNWIRQSPSRGLEWLGRTYYRSKWYNDYAVSVQGRITLIPDTSKNQFSLRLNSVTPEDTAVYYCASVRAVAPFDYWGQGVLVTVSS
VL: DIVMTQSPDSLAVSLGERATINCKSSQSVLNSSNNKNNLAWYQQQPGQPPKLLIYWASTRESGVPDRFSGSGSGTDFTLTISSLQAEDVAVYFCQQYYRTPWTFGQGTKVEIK
notes: Human antibody from humanized OmniRat (OMT) rats
B2: HLA-G-0039 (antibody, V domains shown)
VH: EVQLLESGGGLVQPGGSLRLSCAASGFTFSSYAMNWVRQAPGKGLEWVSVISGSGVSTYYADSVKGRFTISRDNSRNTLSLQMNSLRAEDTAVYYCAKDGSYNYGYGDYFDYWGQGTLVTVSS
VL: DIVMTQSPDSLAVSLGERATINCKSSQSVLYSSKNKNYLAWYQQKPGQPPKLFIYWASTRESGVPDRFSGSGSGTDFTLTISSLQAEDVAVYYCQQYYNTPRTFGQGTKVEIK
notes: as for B1
B3: HLA-G-0041 (antibody, V domains shown)
VH: B2 VH with S31T, A33G, N35S, S54G, R76K, S80Y, S85R
VL: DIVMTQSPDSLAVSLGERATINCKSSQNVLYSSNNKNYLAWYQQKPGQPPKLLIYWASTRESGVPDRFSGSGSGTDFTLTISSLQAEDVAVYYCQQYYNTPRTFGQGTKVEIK
notes: as for B1
B4: HLA-G-0031 (antibody, V domains shown)
VH: QVKLMQSGAALVKPGTSVKMSCNASGYTFTDYWVSWVKQSHGKRLEWVGEISPNSGASNFDENFKDKATLTVDKSTSTAYMELSRLTSEDSAIYYCTRSSHGSFRWFAYWGQGTLVTVSS
VL: AIVLNQSPSSIVASQGEKVTITCRASSSVSSNHLHWYQQKPGAFPKFVIYSTSQRASGIPSRFSGSGSGTSYSFTISRVEAEDVATYYCQQGSSNPYTFGAGTKLELK
notes: Rat monoclonal antibody obtained from CD rats

Tests used:
[1] = target: T1, modified human HLA-G β2M MHC class I complex (HLA-G specific amino acids replaced by HLA-A consensus amino … (human)); test: ELISA, biotinylated degrafted HLA-G on streptavidin plate
T1 construct: Counter antigen: single-chain fusion of peptide, beta-2 microglobulin and HLA-G in which 14 HLA-G unique surface positions were mutated to an HLA-A consensus; also called degrafted HLA-G; HLA-G-0007
Protocol: Streptavidin coated plates (Nunc, MicroCoat #11974998001) were coated with 25 μl/well biotinylated human degrafted HLA-G at a concentration of 250 ng/ml and incubated at 4° C. overnight. After washing (3×90 μl/well with PBST-buffer) 25 μl anti-HLA-G samples (1:3 dilution in OSEP buffer) or rat serum (1:600 dilution in OSEP) were added and incubated 1 h at RT. After washing (3×90 μl/well with PBST-buffer) 25 μl/well of a mixture of goat-anti-rat IgG1-POD (Bethyl #A110-106P), goat-anti-rat IgG2a-POD (Bethyl #A110-109P) and goat-anti-rat IgG2b-POD (Bethyl #A110-111P) 1:10000 in OSEP was added and incubated at RT for 1 h on shaker. After washing (6×90 μl/well with PBST-buffer) 25 μl/well TMB substrate (Roche, 11835033001) was added and incubated until OD 2-3. Measurement took place on a Tecan Safire 2 instrument at 370/492 nm.
(§1) The above table summarizes the binding of different rat anti-human HLA-G monoclonal antibodies, derived from wt protein IMS both of wt as well as OMT rats. Shown are the relative EC50 values [ng/ml] and maximal OD of the respective binding to rec. wt monomeric HLA-G protein or the socalled gegrafted HLA-G (HLA-A consensus sequence on HLA-G backbone) protein as assessed by ELISA. The ELISA was set up by coating the biotinylated wt HLA-G or consensus antigen to strepdavidin plates. After incubation and washing steps, the respective antibodies were bound in a concentration range from 10-0 μg in 1:2 dilution steps. Detection of bound antibodies was carried out by anti-Fc-antibody-POD conjugates. EC50 values were determined from the resulting binding curves at the antibody concentrations generating the half-maximal signal.

[2] = target: T2, human HLA-G expressed on cells (JEG3 natural; SKOV3 HLA-G+ and PA-TU-8902 HLA-G+ transfectants) (human); test: flow cytometry, JEG3 cells pre-incubated with antibody (40 µg/ml final); competitor ILT2-Fc chimera
T2 construct: On cells HLA-G stands in an MHC class I complex with beta-2 microglobulin and peptide; these are not specified; also called cell surface HLA-G; HLAG on JEG-3 cells
Protocol: For analysis, JEG3 cells (ATCC HTB36) were stained with ILT2-Fc fusion proteins (control=no inhibition) with or without pre-incubation with different anti-HLA-G antibodies. For the pre-incubation with anti-HLA-G antibodies 25 μl/well of the cell suspension was transferred into a polypropylene 96-Well V-bottom plate and prechilled in the at 4° C. for 10 min. Anti HLA-G antibodies or reference antibodies (G233, MEM-G/9 or 87G) were diluted in staining buffer to a 2-fold concentration of 80 μg/ml and 25 μl/well of the antibody solution was added to the prepared cells and incubated for 1 h at 5° C. Cells were washed twice with 200 μl/well staining buffer with centrifugation at 300 g for 3 min and finally resuspended in 25 μl/well staining buffer.
The detection of human ILT2-Fc Chimera protein (RD #2017-T2-050) to a) JEG3 cells pre-incubated anti HLA-G mAb or b) untreated JEG3 cells as reference was determined as follows: Briefly, the ILT2-Fc or control human IgG (Jackson-Immuno-Research #009-000-003) were diluted in staining buffer to a 2-fold concentration of 20 μg/ml (ILT2) and 25 μl/well of the ILT2-Fc protein solution was added to the prepared cells and incubated for 2 h at 5° C. Cells were again washed twice with 200 μl/well staining buffer the human ILT2-Fcprotein was detected with fluorescent labeled anti human IgG Fc-gamma specific antibody (F(ab′)₂ Fragment Goat Anti-Human IgG, Fcγ fragment specific-FITC, Jackson-Immuno-Research #109-096-008) at a dilution of 10 μg/ml in staining buffer. Cell pellets were resuspended in 50 μl/well detection antibody. After a 1-hour incubation at 5° C. cells were washed twice with staining buffer, resuspended in 70 μl and measured at a FACS Canto II to determine ILT2 binding to JEG 3 cells.

[3] = target: T3, recombinant soluble human HLA-G β2M MHC class I complex, dimer (human); test: ELISA, HLA-G dimer coated at random on plate
T3 construct: Non-biotinylated; also called HLA-G Dimer; dimeric HLA-G
Protocol: as §1, with “IMS.” for “IMS both of wt as well as OMT rats.”, “[ng/ml]” for “[ng/ml] and maximal OD”, “monomeric, dimeric and trimeric” for “monomeric”, “proteins” for “protein or the socalled gegrafted HLA-G (HLA-A consensus sequence on HLA-G backbone) protein”, “HLA-G” for “HLA-G or consensus”, “signal. In case of the non-biotinylated HLA-G dimer and trimer antigens, immobilization was carried out by random coating on assay plates.” for “signal.”

Binder	Max. OD [1] [OD]	Inhibition of ILT2 binding to Jeg3 cells [2] [%]	EC50 [3] [nM]
B1	0.2	91.8	
B2	0.13	-72.9	4.1
B3	0.15	-76.7	5.31
B4	0.13	95.1	1.87
